Laboratory results published in patent publication EP4813394A2 (Albert-Ludwigs-Universität Freiburg, dated 2026).

Target: T1, TRMT112 (KMT9beta) (Homo sapiens, UniProt Q9UI30 1-125)
T1 construct: TRMT112 is untagged when co-expressed with His-C21orf127 and His-tagged when expressed alone (His-TRMT112); also called His-TRMT112
T1 sequence: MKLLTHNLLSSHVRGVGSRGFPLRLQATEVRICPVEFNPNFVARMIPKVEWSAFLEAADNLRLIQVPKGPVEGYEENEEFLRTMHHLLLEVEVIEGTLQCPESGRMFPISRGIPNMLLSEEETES
Assay: gel filtration chromatography (Superose 6 10/300 GL)

binding result: binds
B1: C21orf127(N122A) (enzyme)
chain: MAGENFATPFHGHVGRGAFSDVYEPAEDTFLLLDALEAAAAELAGVEICLEVGSGSGVVSAFLASMIGPQALYMCTDINPEAAACTLETARCNKVHIQPVITDLVKGLLPRLTEKVDLLVFAPPYVVTPPQEVGSHGIEAAWAGGRNGREVMDRFFPLVPDLLSPRGLFYLVTIKENNPEEILKIMKTKGLQGTTALSRQAGQETLSVLKFTKS
notes: Co-expressed with TRMT112 as His-C21orf127(N122A)/TRMT112; also called KMT9alpha(N122A); His-C21orf127(N122A); not shown: N-terminal His tag from pDEST17 or pET-Duet1
